Experimental data taken from patent US20190153089A1.

Target: the two scFvs (17-21-A01-sc01 and 17-21-A01-sc03)
Assay: competition ELISA: IC50 of TNFβ relative to IC50 of TNFα on coated scFv

selectivity for binding to TNFα over TNFβ: > 20000 fold
B1: recombinant human TNFβ (Peprotech, Cat. No. 300-01B) (ligand, UniProt P01374 35-205, looked up)
chain: LPGVGLTPSAAQTARQHPKMHLAHSTLKPAAHLIGDPSKQNSLLWRANTDRAFLQDGFSLSNNSLLVPTSGIYFVYSQVVFSGKAYSPKATSSPLYLAHEVQLFSSQYPFHVPLLSSQKMVYPGLQEPWLHSMYHGAAFQLTQGDQLSTHTDGIPHLVLSPSTVFFGAFAL
